# Entries after “also recorded” stand apart in the source; their conditions may differ. Where no end group is shown, it is not given here. [ ]: non-standard residue; d: D form. The star is where a group is joined. aminomethylferrocene = [Fe+2].c1cc[c-](CN*)c1.c1cc[cH-]c1; Ava = NCCCCC(=O)O
# Experiments:
# cathepsin B [1] = target: T1, cathepsin B (Homo sapiens, UniProt P07858); assay: Screening of peptide-Fc substrates for cathepsin B (electrochemical measurements, fluorogenic assays, HPLC-MS); type: biochemical; conditions: for proteolysis rate by cathepsin B compared to other candidates: library of nine peptide-Fc substrates
# Description: A library of nine peptide substrates was examined initially for proteolysis using cathepsin B (Table S1). […] The order and amino acid sequence of the peptide substrates were designed according to the literature reported sequences with minor modifications. Among the nine peptides, three most reactive peptide substrates, i.e., H-3, H-15, and H-16 (Table 1), were selected for our studies on cathepsin B activity profiling. The peptides were designed based on literature reports and synthesized using a solid-phase microwave peptide synthesizer detailed in the Supporting Information below. For example, peptide H-15, a representative peptide, was made by the coupling of H-Ala-2-chlorotrityl resin with various N-fluorenylmethyloxycarbonyl-amino acids (N-Fmoc-amino acids) sequentially, condensing with the linker N-Boc-NH—(CH2)4—CO2H, cleavage of the peptide from the resin, re-protection of the amino group of linker, bonding with (aminomethyl)ferrocene, and removal of the protecting group.
# We have designed and synthesized nine different peptide-Fc substrates containing 6-8 amino acids (listed in Table S1 below) for proteolysis by cathepsin B based on the specific recognition reported in literature and tested the cathepsin B activities on these peptide-Fc substrates by the combination of electrochemical measurements (using Au disk electrodes and VACNF nanoelectrode arrays), fluorogenic assays and HPLC-MS analysis.
# cathepsin B [2] = target: T1, cathepsin B; assay: Determination of cleavage sites by HPLC-MS; type: biochemical; design: purchased R&D Systems Inc. (Minneapolis, MN); conditions: 50 mM MES pH 5.0, 250 mM NaCl, 0.17 μM cathepsin B, 2 h and 3 h
# Description: Here, the data is normalized to the value of ip0 derived from the fitting data according to eq 9. This normalization accounts for variations in I′ of the peptide-Fc substrate between each of the electrodes, and the values of ip0 and values of ip0 are listed in Table S3. […] FIG. 8b is a bar graph illustrating the differences in the measured values of 1/τ broken down by channels with H-16 (shown in blue), H-15 (shown in red) and H-3 (shown in green), similar to FIG. 8a. Here the average values of 1/τ were measured to be (8.9±1.1)×10^−4 s^−1, (6.8±1.8)×10^−4 s^−1, and (7.4±0.9)×10^−4 s^−1 for H-16, H-15 and H-3, respectively. These three peptides show similar values of 1/τ because the majority of the amino acid sequences are similar. […] For peptide H-15, all analyte solutions contained 6.5 mM peptide H-15, 50 mM MES buffer (pH 5.0) and 250 mM NaCl. Chromatograms of the peptide in the solution were then analyzed. H-15 appeared at 35.9 min in the chromatogram as verified by mass spectrometry. After incubation with cathepsin B for 2 h the cleaved fragment connected to the Fc moiety appeared at 16.0 min in the chromatogram as verified by mass spectrometry [showing a mass of 626.5 [M+23(Na)] in the mass spectrum]. A final chromatogram of peptide H-15 obtained after incubation with 5.75 ng/μL (0.17 μM) cathepsin B for 3 h confirms the cleavage site. Analyte solution for peptide H-16 was 50 mM MES (pH 5.0) and 250 mM NaCl. The hexapeptide appeared at 33.4 min in the HPLC chart and its structure was verified by mass spectrometry analysis. After treatment of hexapeptide H-16 with cathepsin B in 50 mM MES (pH 5.0) and 250 mM NaCl for 2 h the cleaved fragment appeared at 16.0 min and its structure was verified by MS analysis [showing a mass of 625.043 (M−H2+1) in the mass spectrum]. Cleavage was confirmed by incubation of 6.5 mM peptide H-16 in 50 mM MES (pH 5.0) and 250 mM NaCl incubated with 5.75 ng/μl (0.17 μM) cathepsin B for 3 h.
# The cleavage sites of the hexapeptide-Fc substrates were examined using HPLC as described above. Analytical HPLC was performed with a Shimadzu SCL-10A HPLC system fitted with a proto 300 C18 reverse phase semi-prep column (10 μm, 250×10 mm). The flow rate was 1 ml/min with a gradient elution starting from 100% solvent A (water containing 0.1% TFA) to 20% solvent A and 80% solvent B (acetonitrile containing 0.1% TFA) over 50 min. The UV absorbance was monitored at 254 nm. […] The absorbance peak at ˜33.5 min was peptide H-16 and peak at 16.0 min is assigned as [Leu-Ala-Gly-Val-Ala-NH═CH-Fc]^+ (residues 2-6 of SEQ ID NO:3) (mass of 625.288). […]
cleavage site by cathepsin B (cathepsin B [2]),proteolytic activity by cathepsin B among synthesized peptides (cathepsin B [1]; selected from about 30 synthesized peptides),cleavage site by cathepsin B (cathepsin B [2]; listed as peptide-Fc),Substance,proteolysis rate by cathepsin B compared to other candidates (cathepsin B [1])
between Pro-Leu,,,H2N-(CH2)4-CO-Pro-Leu-Ala-Gly-Val-Ala-NH-CH2-Fc ([Ava]PLAGVA-aminomethylferrocene) [Peptide H-16],most reactive; also recorded: higher proteolysis rates
between Leu and Ala residues,highest proteolytic activity,between Leu and Ala,H2N-(CH2)4-CO-Pro-Leu-Ala-Phe-Val-Ala-NH-CH2-Fc ([Ava]PLAFVA-aminomethylferrocene) [Peptide H-15],most reactive; also recorded: higher proteolysis rates
between Gly-Ala and Phe-Gly residues,,,H2N-(CH2)4-CO-Pro-Leu-Arg-Phe-Gly-Ala-NH-CH2-Fc ([Ava]PLRFGA-aminomethylferrocene) [Peptide H-3],most reactive; also recorded: higher proteolysis rates
